T1: recombinant Human Fc gamma RIIB/CD32b Avi-tag Protein (R&D systems, AVI1875-050, CF) (human, UniProt P31994 46-217)
T1 construct: also called FcγRIIb/CD32b
T1 sequence (looked up): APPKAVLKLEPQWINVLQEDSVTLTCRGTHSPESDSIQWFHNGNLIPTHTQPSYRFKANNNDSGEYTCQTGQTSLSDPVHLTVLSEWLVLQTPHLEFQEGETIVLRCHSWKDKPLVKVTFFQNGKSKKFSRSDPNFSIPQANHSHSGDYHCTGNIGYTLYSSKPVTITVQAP

T2: recombinant Human Fc gamma RIIA/CD32a (H167) Protein (R&D systems, 9595-CD-050, CF) (human, UniProt P12318 36-218)
T2 construct: also called FcγRIIa/CD32a; human Fc gamma receptors IIa
T2 sequence (looked up): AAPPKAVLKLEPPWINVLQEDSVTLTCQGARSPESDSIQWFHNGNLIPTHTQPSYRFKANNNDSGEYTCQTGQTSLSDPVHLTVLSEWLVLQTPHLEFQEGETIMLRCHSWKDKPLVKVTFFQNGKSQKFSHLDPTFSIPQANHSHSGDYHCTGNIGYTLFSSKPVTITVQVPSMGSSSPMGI


Legend:
[1] = biological target: T3, Biotinylated Recombinant Human PD-1/CD279-Fc Chimera, carrier-free, Biolegend #789406 (human, UniProt Q15116 25-167, biotinylated (site not stated)); assay: ELISA; antibody coated on the plate, biotinylated human PD-1-Fc titrated in solution (x axis), streptavidin-HRP, signal at 450 nm
T3 construct: Bought reagent; also called recombinant biotinylated human PD-1; human PD1/CD279 ligand; Fc part of the bought chimera not given; not described

[2] = biological target: T3, Biotinylated Recombinant Human …; assay: ELISA; antibody coated, biotinylated human PD-1-Fc titrated
[3] = biological target: T4, His-tagged human PD1, R&D #8986-PD (human, UniProt Q15116 25-167); assay: BLI (Octet), antibody on AHC sensor, His-tagged human PD1 as analyte
T4 construct: Bought reagent; not shown: His tag

[4] = biological target: T5, recombinant Human Fc gamma RIIIA/CD16a Protein (R&D systems, 4325-FC-050; CF) (human, UniProt P08637 17-208, limits assumed); assay: ELISA; antibody coated, Fc gamma receptor titrated
T5 construct: also called FcγRIIIa/CD16; human Fc gamma receptor IIIa (CD16)

[5] = biological target: T1, recombinant Human Fc gamma RIIB/CD32b …; assay: ELISA; antibody coated, Fc gamma receptor titrated
[6] = biological target: T2, recombinant Human Fc gamma RIIA/CD32a …; assay: ELISA; antibody coated, Fc gamma receptor titrated
[7] = biological target: T6, recombinant Human Fc gamma RI/CD64 Protein (R&D systems, 1257-FC-050, CF) (human, UniProt P12314 16-288); assay: ELISA; antibody coated, Fc gamma receptor titrated
T6 construct: also called FcγRI/CD64; human Fc gamma receptor I (CD64)

[8] = biological target: T7, recombinant biotinylated human FcRn (human, UniProt P55899 24-297; P61769 21-119, limits assumed, biotinylated (site not stated)); assay: AlphaLISA competition at pH 6; competitor: human IgG on acceptor beads
T7 construct: also called human neonatal Fc receptor (FcRn); human Fc neonatal receptor

Row | Binder | EC50 (read off the curve) [1] [nM] | Kd [2] [nM] | Kd [3] [nM] | koff [3] [s⁻¹] | kon [3] [M⁻¹ s⁻¹] | Kd [4] [nM] | Kd [5] [nM] | Kd [6] [nM] | Kd [7] [nM] | Kd [8] [nM]
1 | LZM-009 (antibody, V domains shown, full antibody with an Fc region (K248, EU numbering); also called anti-PD-1 antibody LZM-009) VH: QVQLVQSGAEVKKPGASVKVSCKASGYTFTSYYMYWVRQAPGQGLEWMGGVNPSNGGTNFNEKFKSRVTITADKSTSTAYMELSSLRSEDTAVYYCARRDYRYDMGFDYWGQGTTVTVSS VL: EIVLTQSPATLSLSPGERATISCRASKGVSTSGYSYLHWYQQKPGQAPRLLIYLASYLESGVPARFSGSGSGTDFTLTISSLEPEDFATYYCQHSRELPLTFGTGTKVEIK | ~0.06 | 0.0407 | 23.5 | 0.0077 | 342000 | – | – | – | – | –
2 | Durvalumab/Imfinzi (antibody, human IgG1, kappa, also called MEDI-4736) heavy: EVQLVESGGGLVQPGGSLRLSCAASGFTFSRYWMSWVRQAPGKGLEWVANIKQDGSEKYYVDSVKGRFTISRDNAKNSLYLQMNSLRAEDTAVYYCAREGGWFGELAFDYWGQGTLVTVSSASTKGPSVFPLAPSSKSTSGGTAALGCLVKDYFPEPVTVSWNSGALTSGVHTFPAVLQSSGLYSLSSVVTVPSSSLGTQTYICNVNHKPSNTKVDKRVEPKSCDKTHTCPPCPAPEFEGGPSVFLFPPKPKDTLMISRTPEVTCVVVDVSHEDPEVKFNWYVDGVEVHNAKTKPREEQYNSTYRVVSVLTVLHQDWLNGKEYKCKVSNKALPASIEKTISKAKGQPREPQVYTLPPSREEMTKNQVSLTCLVKGFYPSDIAVEWESNGQPENNYKTTPPVLDSDGSFFLYSKLTVDKSRWQQGNVFSCSVMHEALHNHYTQKSLSLSPGK light: EIVLTQSPGTLSLSPGERATLSCRASQRVSSSYLAWYQQKPGQAPRLLIYDASSRATGIPDRFSGSGSGTDFTLTISRLEPEDFAVYYCQQYGSLPWTFGQGTKVEIKRTVAAPSVFIFPPSDEQLKSGTASVVCLLNNFYPREAKVQWKVDNALQSGNSQESVTEQDSKDSTYSLSSTLTLSKADYEKHKVYACEVTHQGLSSPVTKSFNRGEC | – | – | – | – | – | 234 | 233 | 160 | 2.34 | 8.31
3 | Pembrolizumab/Keytruda (antibody, human IgG4 S228P, kappa, also called Lambrolizumab; MK-3475) heavy: not shown light: EIVLTQSPATLSLSPGERATLSCRASKGVSTSGYSYLHWYQQKPGQAPRLLIYLASYLESGVPARFSGSGSGTDFTLTISSLEPEDFAVYYCQHSRDLPLTFGGGTKVEIKRTVAAPSVFIFPPSDEQLKSGTASVVCLLNNFYPREAKVQWKVDNALQSGNSQESVTEQDSKDSTYSLSSTLTLSKADYEKHKVYACEVTHQGLSSPVTKSFNRGEC | – | – | – | – | – | 1660 | – | – | 0.593 | 7.45
